Like-named read-outs stand apart in the source and are kept apart here.
Experiments:
[1] = target: human red blood cells (CD47 on RBC) (human) (UniProt Q08722); experiment: flow cytometry on human RBCs, Donor 1, antibody 10 ug/mL
[2] = target: human red blood cells (CD47 on RBC) (human) (UniProt Q08722); experiment: flow cytometry on human RBCs, Donor 2, antibody 10 ug/mL
[3] = target: primary human AML cells (CD47 on PBMCs of AML patient AML-PB003F) (human) (UniProt Q08722); experiment: flow cytometry on primary AML cells (AML-PB003F); concentration not given
[4] = target: primary human AML cells (CD47 on PBMCs of AML patient AML-PB003F) (human) (UniProt Q08722)
[5] = target: human CD47 on Raji cells (human) (UniProt Q08722); experiment: flow cytometry on Raji cells, APC anti-human Fc
[6] = target: primary human AML cells (CD47 on PBMCs of AML patient AML-PB003F) (human) (UniProt Q08722); remark: listed apart in the source
[7] = target: Recombinant human CD47/mouse Fc fusion protein (Acrobiosystems) (human) (UniProt Q08722); experiment: ELISA on coated CD47/mouse Fc fusion protein (1 ug/ml), anti-human Fc HRP
[8] = target: Recombinant human CD47-Fc fusion protein (Acrobiosystems) (human) (UniProt Q08722); experiment: blocking ELISA: SIRPa-His (1 ug/mL) binding to coated CD47-Fc, anti-His HRP
[9] = target: human platelets (CD47 on CD61-positive platelets) (human) (UniProt Q08722); experiment: flow cytometry on human whole blood, gated on CD61+ platelets, antibody 10 ug/mL
[10] = target: human red blood cells (CD47 on RBC) (human) (UniProt Q08722); experiment: flow cytometry on human RBCs, APC secondary antibody
[11] = target: Biotinylated CD47 protein (Acrobiosystems) (human) (UniProt Q08722); experiment: ELISA on coated biotinylated CD47 protein (1 ug/mL), anti-human Fc HRP
[12] = target: T1, Biotinylated CD47 protein (Acrobiosystems) (human, UniProt Q08722 19-139, biotinylated (site not stated)); experiment: as above
T1 construct: extracellular domain; Bought reagent; also called monomeric CD47-ECD; biotinylated human CD47-ECD protein
Protocol: After coating of antigen, the wells were blocked with PBS/0.05% Tween (PBST) with 1% BSA for 1 hour at RT. […] Between all incubation steps, the wells of the plate were washed with PBST three times. Fluorescence was measured in a TECAN Spectrafluor plate reader.

Binding (percent of RBC in the gate) [1] [%] | Binding (percent of RBC in the gate) [2] [%] | AML Binding (percent of cells in the gate) [3] [%] | phagocytosis: percent of CFSE+ AML cells among CD14+ macrophages [4] [%] | EC50 (read off the curve) [5] [µg/mL] | phagocytosis: percent of CFSE+ AML cells among CD14+ macrophages [6] [%] | EC50 (read off the curve) [7] [µg/mL] | IC50 (read off the curve) [8] [µg/mL] | Binding (percent of CD61+ platelets in the gate) [9] [%] | EC50 (read off the curve) [10] [µg/mL] | EC50 (read off the curve) [11] [µg/mL] | EC50 (read off the curve) [12] [µg/mL] | Molecule
0.079 | 0.018 | 27.6 | 27 |  |  |  |  |  |  |  |  | IgG (antibody)
 |  | 75.1 |  | 0.1 | 36.8 | 0.006 | 0.2 | 0.41 | 0.06 | 0.03 |  | Reference antibody 2A1 (produced according to the sequence of CC-90002)
0.065 | 0.076 |  |  |  |  |  |  | 0.77 |  |  | ~0.008 | CD47 antibody 1F8 (antibody, V domains shown) VH: KVQLVESGGGLVKPGGSLRLSCAASGFTFSNAWMNWVRQAPGKGLEWVGRIKRKTDGETTDYAAPVKGRFSISRDDSKNTLYLQMNSLKTEDTAVYYCAGSNRAFDIWGQGTMVTVSA VL: DIVMTQSPDSLAVSLGERATINCKSSQSVLYSSNNRNYLAWYQQKPGQPPKLLINQASTRASGVPDRFSGSGSGTEFTLIISSLHAEDVAIYYCQQYYTPPLAFGGGTKLEIK
